Measurements reported in patent US20090155236A1, “Peptide sequence for modulation of delta protein kinase c” (NATIONAL INSTITUES OF HEALTH (NIH), U.S. DEPT OF HEALTH AND …, priority 2004, published 2009).
Each block holds one molecule with its values, some of them ahead of it.

What was measured:
delta PKC [1] = molecular target: T1, delta PKC (Rattus norvegicus, UniProt P09215); assay: ELISA binding of annexin I and annexin V to delta PKC; details: FIG. 3
Text: Annexin V binds with higher affinity to delta PKC than does annexin I (SEQ ID NO:9), as was shown in another study presented in FIG. 3. The percent binding of annexin 1 and annexin V to delta PKC (SEQ ID NO:3) in the presence and absence of calcium was investigated using ELISA (Example 2). […] In the presence of calcium the binding increased to 100%. In contrast, annexin I binding to delta PKC was unaffected by the presence of calcium and remained at about 70% both in the absence and presence of calcium.
(§1) Annexin V (SEQ ID NO:2) was diluted in 100 mM carbonate buffer (pH=9.6) and 100 μl of the diluted solution is placed in each well of a microtiter plate to give 0.1 μg Annexin V per well. The plate was incubated overnight at 4° C. After the overnight incubation, the plate was blocked for 1 hour at room temperature with 200 μL/well of 1% bovine serum albumin (BSA).
The interaction partners, delta PKC (SEQ ID NO:3), delta V1 PKC (SEQ ID NO:4), and delta V5 PKC (SEQ ID NO:5), were diluted in 100 mM HEPES. For the full length delta PKC, approximately 1.5 μg/well (1:20 dilution of cell lysate) was added. For the delta V1 and delta V5 PKC regions, between about 8000-80 ng/well was added, with an intermediate concentration being sufficient. Signal to noise increased dramatically at higher concentrations; therefore, 8 μg/well was preferred (this corresponds to 1:40 dilution of cell lysate). 100 μL/well, 1 hour w/shaking. Binding was accelerated at 37° C., however room temperature was also sufficient for binding.
After 1 hour shaking, the plate was washed three times with 100 mM HEPES (200 μL/well×3), with 5 minutes for each wash, with shaking.
Next, a primary antibody in milk (usually 1:1000 dilution) was added, followed by 1 hour at room temperature with shaking. The plate was then washed three times, (200 μL/well×3) with PBS Tween (0.1% Tween), with 5 minutes per wash with shaking.
Then, the secondary antibody diluted in PBS Tween (usually 1:1000) was added, followed by 1 hour at room temperature with shaking. The plate was then washed three times (200 μL/well×3) with PBS Tween, with 5 minutes per wash with shaking.
(§2) A developing reagent was added (100 μL/well): 1 PNPP tablet per 5 mL diluted buffer. 2N NaOH was added and the plate was allowed to develop and then read at 405 nm (single wavelength).
Target sequence in this assay (P09215 with tags, fused parts or gaps with the stated changes limits assumed): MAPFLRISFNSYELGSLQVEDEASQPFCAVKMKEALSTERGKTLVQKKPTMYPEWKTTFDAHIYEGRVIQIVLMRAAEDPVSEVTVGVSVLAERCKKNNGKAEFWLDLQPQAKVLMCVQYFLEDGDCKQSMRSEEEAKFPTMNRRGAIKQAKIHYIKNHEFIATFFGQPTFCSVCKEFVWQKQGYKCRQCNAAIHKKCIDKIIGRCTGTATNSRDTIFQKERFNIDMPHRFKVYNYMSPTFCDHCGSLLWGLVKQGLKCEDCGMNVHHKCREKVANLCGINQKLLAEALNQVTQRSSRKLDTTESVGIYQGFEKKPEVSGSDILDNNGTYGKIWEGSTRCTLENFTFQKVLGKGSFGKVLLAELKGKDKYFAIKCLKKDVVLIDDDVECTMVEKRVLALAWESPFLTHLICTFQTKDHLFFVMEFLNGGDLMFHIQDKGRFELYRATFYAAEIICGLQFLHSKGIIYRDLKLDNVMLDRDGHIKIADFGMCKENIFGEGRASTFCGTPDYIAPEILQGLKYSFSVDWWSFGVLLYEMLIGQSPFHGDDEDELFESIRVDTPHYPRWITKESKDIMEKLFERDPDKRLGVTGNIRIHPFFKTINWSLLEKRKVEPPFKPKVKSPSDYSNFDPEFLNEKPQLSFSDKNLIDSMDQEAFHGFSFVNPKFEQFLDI

epsilon PKC [2] = molecular target: T2, epsilon PKC (Rattus norvegicus, UniProt P09216); assay: Overlay assay, immobilized annexin V with epsilon PKC; assay type: binding; details: FIG. 1
T2 sequence (P09216 1-737): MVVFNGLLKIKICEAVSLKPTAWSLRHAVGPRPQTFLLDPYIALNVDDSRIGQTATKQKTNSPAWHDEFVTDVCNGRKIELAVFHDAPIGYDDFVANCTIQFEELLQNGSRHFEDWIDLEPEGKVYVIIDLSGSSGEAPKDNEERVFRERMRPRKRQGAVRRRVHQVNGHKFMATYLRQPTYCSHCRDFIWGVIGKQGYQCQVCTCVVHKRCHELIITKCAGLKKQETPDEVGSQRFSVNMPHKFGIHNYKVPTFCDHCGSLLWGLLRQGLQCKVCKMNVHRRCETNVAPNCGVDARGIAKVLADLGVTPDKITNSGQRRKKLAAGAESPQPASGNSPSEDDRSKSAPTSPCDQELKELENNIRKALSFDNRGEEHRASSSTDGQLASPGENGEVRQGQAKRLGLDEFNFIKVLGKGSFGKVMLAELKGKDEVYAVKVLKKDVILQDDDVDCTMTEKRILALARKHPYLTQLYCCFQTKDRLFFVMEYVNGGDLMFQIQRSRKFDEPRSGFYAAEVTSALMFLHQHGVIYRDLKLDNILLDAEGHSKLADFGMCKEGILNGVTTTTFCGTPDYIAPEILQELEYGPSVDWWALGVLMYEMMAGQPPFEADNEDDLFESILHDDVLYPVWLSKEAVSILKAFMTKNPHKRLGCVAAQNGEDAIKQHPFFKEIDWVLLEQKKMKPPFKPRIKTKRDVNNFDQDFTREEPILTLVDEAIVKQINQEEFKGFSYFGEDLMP
Text: (§3) Initial studies were designed to evaluate binding of annexin V to delta PKC, to certain regions of delta PKC (V1 and V5 regions), and to epsilon PKC. In a study detailed in Example 1, an overlay assay using immobilized annexin V (SEQ ID NO:2) and recombinant full-length delta PKC (SEQ ID NO:3), purified full-length epsilon PKC (SEQ ID NO:6), the recombinant V1 region of delta PKC (“V1 delta PKC”, SEQ ID NO:4), and the recombinant V5 region of delta PKC (“V5 delta PKC”, SEQ ID NO:5) was done. The V1 delta PKC peptide conjugated to […] to form a fusion protein, and the V5 delta PKC peptide was conjugated to glutathione-S-transferase to form a fusion protein.
10 μg of annexin V (SEQ ID NO:2) was separated on 12% SDS-PAGE gel and transferred to nitrocellulose, and then cut into strips. The strips were incubated with blocking buffer (50 mM Tris pH 7.5, 200 mM NaCl, 3% bovine serum albumin, 0.1% PEG20). The strips were then incubated in overlay buffer (50 mM Tris pH 7.5, 200 mM NaCl, 1% PEG20, 12 mM β-mercaptoethanol) in the presence where appropriate of 30 μg crude bacterial cell lysate containing fusion proteins of […] V1 PKC (MBP-δV1), glutathione-S-transferase-delta V5 PKC (GST-δV5), and full length sequences of delta (δPKC, SEQ ID NO:3) or rat purified epsilon (εPKC, SEQ ID NO:6) at 37° C. for 30 min. […]

delta V1 PKC = molecular target: T3, delta V1 PKC (Rattus norvegicus, UniProt P09215); assay: ELISA binding of annexin V protein to delta V1 PKC; details: FIG. 2
T3 construct: MBP (printed as 'myelin basic protein'); made in house
T3 sequence (P09215 1-160): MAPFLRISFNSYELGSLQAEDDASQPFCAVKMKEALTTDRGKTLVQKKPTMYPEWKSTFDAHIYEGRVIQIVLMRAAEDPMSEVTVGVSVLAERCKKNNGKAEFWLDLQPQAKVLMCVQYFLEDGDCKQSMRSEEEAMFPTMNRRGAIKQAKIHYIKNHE
Text: In another study, binding of annexin V protein to the V1 regions of epsilon PKC (SEQ ID NO:7) and of delta PKC (SEQ ID NO:4) was examined using ELISA, as described in Example 2. […] Binding of annexin V protein (SEQ ID NO:2) to delta V1 PKC in the absence of calcium was about 55%. In the presence of calcium binding was increased to 100%. […] Thus, annexin V protein binds to full-length PCK and to the V1 and V5 domains of delta PKC in vitro in an isozyme specific manner.
as §1
The interaction partners, delta PKC (SEQ ID NO:3), delta V1 PKC (SEQ ID NO:4), and delta V5 PKC (SEQ ID NO:5), were diluted in 100 mM HEPES. For the full length delta PKC, approximately 1.5 μg/well (1:20 dilution of cell lysate) was added. For the delta V1 and delta V5 PKC regions, between about 8000-80 ng/well was added, with an intermediate concentration being sufficient. […]
as §2

delta PKC [3] = molecular target: T4, delta PKC (Homo sapiens, UniProt Q05655); assay: In vitro kinase assay, histone phosphorylation by delta PKC; assay type: biochemical; details: in the presence of PS/DAG, FIG. 4A
T4 construct: purchased Panvera LLC, now Invitrogen Corporation
T4 sequence (Q05655 whole entry): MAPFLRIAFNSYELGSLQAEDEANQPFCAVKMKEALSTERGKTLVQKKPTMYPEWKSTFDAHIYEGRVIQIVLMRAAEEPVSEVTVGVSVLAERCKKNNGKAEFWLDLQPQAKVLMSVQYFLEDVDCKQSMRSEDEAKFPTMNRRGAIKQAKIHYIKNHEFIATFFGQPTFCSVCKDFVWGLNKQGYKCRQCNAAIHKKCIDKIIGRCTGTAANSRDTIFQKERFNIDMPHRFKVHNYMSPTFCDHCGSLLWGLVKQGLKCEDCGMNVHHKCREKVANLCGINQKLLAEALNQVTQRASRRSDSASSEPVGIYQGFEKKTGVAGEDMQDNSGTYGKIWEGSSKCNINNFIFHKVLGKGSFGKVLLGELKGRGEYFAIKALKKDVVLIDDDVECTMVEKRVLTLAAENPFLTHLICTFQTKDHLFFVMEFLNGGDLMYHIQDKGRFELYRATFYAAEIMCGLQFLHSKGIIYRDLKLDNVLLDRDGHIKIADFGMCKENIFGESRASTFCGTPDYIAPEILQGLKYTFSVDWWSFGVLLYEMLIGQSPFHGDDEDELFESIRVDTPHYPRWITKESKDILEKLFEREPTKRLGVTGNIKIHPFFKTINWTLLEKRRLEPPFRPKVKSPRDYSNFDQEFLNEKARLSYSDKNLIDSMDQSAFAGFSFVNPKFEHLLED
Method: (§4) In another study, the ability of annexin V to increase the catalytic activity of delta PKC in vitro was evaluated. Full-length, recombinant delta PKC (SEQ ID NO:3) and epsilon PKC (SEQ ID NO:6) were separately incubated in the presence of kinase buffer, ATP, or histone, as described in Example 3. Activators of PKC, phosphatidylserine (PS) and diacylglycerol (DAG), were added along with annexin V, JTV-519, a 1,4 benzothiazepine derivative that activates delta PKC (Inagaki, K. et al., Circulation, 101:797 (2000)), or a mixture of annexin V and JTV-519.
(§5) 200 ng of pure delta PKC or epsilon PKC (Panvera LLC, now Invitrogen Corporation, Carlsbad, Calif.) were incubated in 100 μL kinase buffer (20 mM Tris pH 7.4, 50 mM MgCl2, 0.3 μCi/reaction [γ-^32P]ATP (Amersham Biosciences), 9 μM/reaction ATP (Sigma), 30 μg/reaction myelin basic protein or histone A1 (Sigma); 100 μM lipid vesicle mixture (90% phosphatidylserine (PS): 10% diacylglycerol (DAG)), 1 mM CaCl2, 1 μM JTV519, and/or 20 ng of Annexin V/reaction were added, where applicable. The kinase reaction was stopped by the addition of SDS sample buffer, and extent of histone phosphorylation assessed after separation on 15% SDS-PAGE and transfer onto nitrocellulose membrane by autoradiography.

epsilon PKC [4] = molecular target: T5, epsilon PKC (Homo sapiens, UniProt Q02156); assay: In vitro kinase assay, histone phosphorylation by epsilon PKC; assay type: biochemical; details: in the presence of PS/DAG, FIG. 4B
T5 construct: purchased Panvera LLC, now Invitrogen Corporation
T5 sequence (Q02156 with tags, fused parts or gaps DEL296-297/G298R): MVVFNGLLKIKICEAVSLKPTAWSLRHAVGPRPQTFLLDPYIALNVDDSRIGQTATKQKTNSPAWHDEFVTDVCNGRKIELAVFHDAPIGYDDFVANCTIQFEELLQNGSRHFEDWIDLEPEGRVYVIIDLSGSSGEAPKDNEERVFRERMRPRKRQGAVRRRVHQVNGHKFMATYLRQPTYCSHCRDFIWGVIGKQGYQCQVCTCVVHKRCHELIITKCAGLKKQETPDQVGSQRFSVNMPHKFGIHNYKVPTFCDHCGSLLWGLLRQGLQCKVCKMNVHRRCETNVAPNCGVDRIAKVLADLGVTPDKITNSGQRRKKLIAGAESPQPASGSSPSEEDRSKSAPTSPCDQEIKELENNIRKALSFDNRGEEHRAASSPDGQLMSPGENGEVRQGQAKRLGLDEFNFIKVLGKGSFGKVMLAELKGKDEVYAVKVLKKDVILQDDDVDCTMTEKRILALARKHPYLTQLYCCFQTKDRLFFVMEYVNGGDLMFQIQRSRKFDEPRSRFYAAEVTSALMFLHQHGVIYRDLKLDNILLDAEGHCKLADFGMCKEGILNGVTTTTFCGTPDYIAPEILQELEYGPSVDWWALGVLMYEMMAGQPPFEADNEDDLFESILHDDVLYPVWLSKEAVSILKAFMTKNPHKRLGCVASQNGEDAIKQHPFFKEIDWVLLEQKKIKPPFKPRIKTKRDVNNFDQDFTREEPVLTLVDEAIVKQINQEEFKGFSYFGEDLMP
Method: as §4, §5

delta PKC [5] = molecular target: T1, delta PKC; assay: Overlay assay, immobilized annexin V with delta PKC, delta V1 and delta V5 domains; assay type: binding; design: made in house; host or cells: crude bacterial cell lysate (not clear whether this also covers the full-length protein)
Text: as §3
10 μg of annexin V (SEQ ID NO:2) was separated on 12% SDS-PAGE gel and transferred to nitrocellulose, and then cut into strips. The strips were incubated with blocking buffer (50 mM Tris pH 7.5, 200 mM NaCl, 3% bovine serum albumin, 0.1% PEG20). The strips were then incubated in overlay buffer (50 mM Tris pH 7.5, 200 mM NaCl, 1% PEG20, 12 mM β-mercaptoethanol) in the presence where appropriate of 30 μg crude bacterial cell lysate containing fusion proteins of […] V1 PKC (MBP-δV1), glutathione-S-transferase-delta V5 PKC (GST-δV5), and full length sequences of delta (δPKC, SEQ ID NO:3) or rat purified epsilon (εPKC, SEQ ID NO:6) at 37° C. for 30 min. The strips where then washed with wash buffer (50 mM Tris pH 7.5, 200 mM NaCl, 0.1% PEG20, 12 mM O-mercaptoethanol), and then incubated with fixative (0.2% formaldehyde in PBS) and neutralizing solution (0.2M glycine in PBS) at room temperature 20 min each. After washing with buffer, the strips were probed with antibodies according to the overlay protein, and resulting bands visualized using ECL Western blotting.

percent binding to delta PKC (delta PKC [1]; absence of calcium): about 70%
percent binding to delta PKC (delta PKC [1]; presence of calcium): about 70%
B1: annexin I: human annexin I protein (protein, listed as Homo sapiens)
chain: MAMVSEFLKQAWFIENEEQEYVQTVKSSKGGPGSAVSPYPTFNPSSDVAALHKAIMVKGVDEATIIDILTKRNNAQRQQIKAAYLQETGKPLDETLKKALTGHLEEVVLALLKTPAQFDADELRAAMKGLGTDEDTLIEILASRTNKEIRDINRVYREELKRDLAKDITSDTSGDFRNALLSLAKGDRSEDFGVNEDLADSDARALYEAGERRKGTDVNVFNTILTTRSYPQLRRVFQKYTKYSKHDMNKVLDLELKGDIEKCLTAIVKCATSKPAFFAEKLHQAMKGVGTRHKALIRIMVSRSEIDMNDIKAFYQKMYGISLCQAILDETKGDYEKILVALCGGN

binding of epsilon PKC to annexin V (epsilon PKC [2]): did not bind
percent binding to delta V1 PKC (delta V1 PKC; absence of calcium): about 55%
percent binding to delta V1 PKC (delta V1 PKC; presence of calcium): 100%
percent binding to delta PKC (delta PKC [1]; absence of calcium): about 75%
percent binding to delta PKC (delta PKC [1]; presence of calcium): 100%
binding of V5 domain of delta PKC to annexin V (delta PKC [5]; FIG. 1, GST-delta V5 fusion protein): bound to annexin V
binding of V1 domain of delta PKC to annexin V (delta PKC [5]; FIG. 1, MBP-delta V1 fusion protein): bound to annexin V
binding of full-length delta PKC to annexin V (delta PKC [5]; FIG. 1, full-length delta PKC): bound to annexin V
B2: annexin V: human annexin V protein (protein, listed as Homo sapiens)
chain: MAQVLRGTVTDFPGFDERADAETLRKAMKGLGTDEESILTLLTSRSNAQRQEISAAFKTLFGRDLLDDLKSELTGKFEKLIVALMKPSRLYDAYELKHALKGAGTNEKVLTEIIASRTPEELRAIKQVYEEEYGSSLEDDVVGDTSGYYQRMLVVLLQANRDPDAGIDEAQVEQDAQALFQAGELKWGTDEEKFITIFGTRSVSHLRKVFDKYMTISGFQIEETIDRETSGNLEQLLLAVVKSIRSIPAYLAETLYYAMKGAGTDDHTLIRVMVSRSEIDLFNIRKEFRKNFATSKMIKGDTSGDYKKALLLLCGEDD
catalytic activity of delta PKC (histone phosphorylation) (delta PKC [3]): increases the catalytic activity of delta PKC
activity of epsilon PKC (histone phosphorylation) (epsilon PKC [4]): does not increase the activity of epsilon PKC
